From patent publication US20090208522A1 come the findings set out here.

For assay [1], the target named is GDF8 protein (R&D Systems Inc.) (UniProt O14793). The assay can be described thus: cell-based or functional assay.
The target in assay [2] is DJ1 peptide (GDF8 active region peptide 267-286) (human). The assay can be described thus: ELISA, peptide coated 500 ng/well, antibody diluted 1:80. In general terms: In an ELISA, binding on a coated surface is turned into a signal by an enzyme label.
Assay [3] concerns the target DJ5 peptide (GDF8 active region peptide 327-346) (human). The description is as above.
Assay [4] addresses DJ2 peptide (GDF8 active region peptide 282-301) (human). Described as above.
The target of assay [5] is DJ7 peptide (GDF8 active region peptide 357-375) (human). The assay is described as above.
The target of assay [6] is DJ4 peptide (GDF8 active region peptide 312-331) (human). The assay is described as above.
The target in assay [7] is DJ6 peptide (GDF8 active region peptide 342-361) (human). Described as above.
For assay [8], the target named is DJ3 peptide (GDF8 active region peptide 297-316) (human). The assay is described as above.
Assay [9] has as its target TMV-FV7 (DJ5(12)-U1-GPAT coat protein fusion, from pLSB-FV7). The assay can be described thus: DAS ELISA, virion captured by PVAS 135D.
In assay [10] the target is Purified CHO-derived FLAG-tagged human GDF8 prohormone (precursor GDF8) (human) (UniProt O14793). The assay can be described thus: indirect ELISA, proGDF8FLAG coated at 5 ug/mL.
The target is the same in assay [11]. In words: indirect ELISA.
For assay [12] the target is unchanged. In words: direct ELISA, response per pmole.
Assay [13] concerns the target TMV-FV7 (DJ5(12)-U1-GPAT coat protein fusion, from pLSB-FV7). The assay can be described thus: DAS ELISA, virion captured by PVAS-135D.
The target of assay [14] is TMV U1 coat protein / wild-type TMV U1 virus (tobacco mosaic virus, strain U1) (UniProt P69687). In words: DAS ELISA, virion captured by PVAS-135D.
Assay [15] deals with DJ1 peptide (GDF8 active region peptide 267-286) (human). In words: ELISA, peptide coated 500 ng/well, antibody diluted 1:20.
The target in assay [16] is DJ5 peptide (GDF8 active region peptide 327-346) (human). The description is as above.
The target of assay [17] is DJ2 peptide (GDF8 active region peptide 282-301) (human). The description is as above.
The target in assay [18] is DJ7 peptide (GDF8 active region peptide 357-375) (human). The assay is described as above.
In assay [19] the target is DJ4 peptide (GDF8 active region peptide 312-331) (human). The description is as above.
Assay [20] has as its target DJ6 peptide (GDF8 active region peptide 342-361) (human). The description is as above.
In assay [21] the target is DJ3 peptide (GDF8 active region peptide 297-316) (human). Described as above.
Assay [22] deals with TMV-FV7 (DJ5(12)-U1-GPAT coat protein fusion, from pLSB-FV7). The assay can be described thus: indirect ELISA, endpoint dilution.
Assay [23] has as its target DJ5 (20) peptide conjugated to BSA (human). In words: indirect ELISA, conjugate coated at 5 ug/mL.
Assay [24] deals with DJ1 peptide (GDF8 active region peptide 267-286) (human). The assay can be described thus: ELISA, peptide coated 500 ng/well, antibody diluted 1:40.
In assay [25] the target is DJ5 peptide (GDF8 active region peptide 327-346) (human). The assay is described as above.
For assay [26], the target named is DJ2 peptide (GDF8 active region peptide 282-301) (human). The description is as above.
In assay [27] the target is DJ7 peptide (GDF8 active region peptide 357-375) (human). Described as above.
The target in assay [28] is DJ4 peptide (GDF8 active region peptide 312-331) (human). The assay is described as above.
The target in assay [29] is DJ6 peptide (GDF8 active region peptide 342-361) (human). The assay is described as above.
Assay [30] deals with DJ3 peptide (GDF8 active region peptide 297-316) (human). Described as above.
The target in assay [31] is Purified CHO-derived FLAG-tagged human GDF8 prohormone (precursor GDF8) (human) (UniProt O14793). The assay can be described thus: ELISA, prohormone coated 250 ng/well, antibody diluted 1:80.
Assay [32] addresses TMV-FV7 (DJ5(12)-U1-GPAT coat protein fusion, from pLSB-FV7). In words: indirect ELISA, antigen coated at 5 ug/mL.
In assay [33] the target is TMV U1 coat protein / wild-type TMV U1 virus (tobacco mosaic virus, strain U1) (UniProt P69687). The assay can be described thus: indirect ELISA, antigen coated at 5 ug/mL.
Assay [34] concerns the target TMV U5 coat protein / TMV U5 virus (tobacco mild green mosaic virus (TMV U5)). The assay can be described thus: indirect ELISA, antigen coated at 5 ug/mL.
Assay [35] has as its target Purified CHO-derived FLAG-tagged human GDF8 prohormone (precursor GDF8) (human) (UniProt O14793). The assay can be described thus: ELISA, prohormone coated 250 ng/well, antibody diluted 1:20.
The target in assay [36] is TMV-FV7 (DJ5(12)-U1-GPAT coat protein fusion, from pLSB-FV7). In words: DAS ELISA, PVAS 135D capture.
The target in assay [37] is Purified CHO-derived FLAG-tagged human GDF8 prohormone (precursor GDF8) (human) (UniProt O14793). In words: ELISA, prohormone coated 250 ng/well, antibody diluted 1:40.

Values joined by “and” are separate entries in the source; they are usually repeats but may differ in a detail not shown here. Equal entries are not always repeated.

In assay [1], “Normal goat IgG (purified from non-immunized goat sera, commercially purchased) (antibody)” had a % Inhibition of GDF8 Activity (in vitro transcriptional activation assay), 250 ug IgG of 7% and a % Inhibition of GDF8 Activity (in vitro transcriptional activation assay, A204 cells, luciferase reporter), 250 ug IgG of 0%.
For “Rat monoclonal antibody MAB788 (R&D Systems, anti-mouse GDF8)”, the ELISA reactivity (OD 405/minute x 1000) (OD405/min x 1000) came to 0 in assay [2]; 102 in assay [3]; 0 in assay [4]; 0 in assay [5]; 0 in [6]; 0 in assay [7]. The ELISA reactivity (OD 405/minute x 1000) (OD405/min x 1000) stood at 0 in assay [8]; 4 in assay [15]; 133 in assay [16]; 0 in assay [17]; 0 in assay [18]; 0 in assay [19]. The ELISA reactivity (OD 405/minute x 1000) (OD405/min x 1000) in assay [20] turned out to be 0; in assay [21] it was 0; in assay [24], 0; in assay [25], 118; in [26], 0; in assay [27] it was 0. Besides, the ELISA reactivity (OD 405/minute x 1000) (OD405/min x 1000) in assay [28] was 0; in assay [29], 0; in assay [30], 0; in [31], 132; in [35], 132; in assay [37], 127. Further, the endpoint dilution (reciprocal dilution) in [9] came out at 7290; in assay [10], 21900; in assay [13] it was 14600; in [14], 180; in [23], 270; in assay [32], 4860. In addition, the endpoint dilution (reciprocal dilution) in [33] was 1620; in [34], less than 20. In addition, the endpoint dilution higher than for DJ5(20) BSA (log10) in assay [11] came out at 2. Besides, in assay [12], the fold higher response than to TMV-FV6 and TMV-FV7 was 2 fold and 3 fold. The fold higher response than against the U1 coat protein in [22] stood at 3 fold. Besides, the % Inhibition of GDF8 Activity (in vitro transcriptional activation assay), 0.1 ug IgG in [1] came out at 0%. The % Inhibition of GDF8 Activity (in vitro transcriptional activation assay), 1.8 ug IgG in assay [1] stood at 0%. The % Inhibition of GDF8 Activity (in vitro transcriptional activation assay), 3.1 ug IgG in assay [1] is 7%. In [1], this substance yielded a % Inhibition of GDF8 Activity (in vitro transcriptional activation assay), 6.3 ug IgG of 17%. The substance further gave a % Inhibition of GDF8 Activity (in vitro transcriptional activation assay), 12.5 ug IgG in assay [1] of 47%. This substance returned a fold lower endpoint dilution than for the GDF8 prohormone in [36] of 3 fold.
